# B1: Guanyl-specific ribonuclease T1 wild type, P00651 (protein)
# chain: MMYSKLLTLTTLLLPTALALPSLVERACDYTCGSNCYSSSDVSTAQAAGYQLHEDGETVGSNSYPHKYNNYEGFDFSVSSPYYEWPILSSGDVYSGGSPGADRVVFNENNQLAGVITHTGASGNNFVECT
# Settings: Aspergillus oryzae (strain ATCC 42149 / RIB 40), pH 7, 25 °C, GdnHCl, CD, cacodylate 0.013 M, reversible: yes, whole UniProt chain shown
protein,measurement,setting,value
B1,denaturant m value,(NH4)2SO4 0.15 M,2.85 kcal/mol/M
same,denaturant midpoint (higher = more stable),(NH4)2SO4 0.15 M,3.16 M
same,unfolding free energy,(NH4)2SO4 0.15 M,9.6 kcal/mol
same,denaturant m value,(NH4)2SO4 0.30 M,2.9 kcal/mol/M
same,denaturant midpoint (higher = more stable),(NH4)2SO4 0.30 M,3.37 M
same,unfolding free energy,(NH4)2SO4 0.30 M,10.3 kcal/mol
same,denaturant m value,CsCl 0.49 M,3.18 kcal/mol/M
same,denaturant midpoint (higher = more stable),CsCl 0.49 M,2.81 M
same,unfolding free energy,CsCl 0.49 M,8.9 kcal/mol
same,denaturant m value,KCl 0.1 M,3.04 kcal/mol/M
same,denaturant midpoint (higher = more stable),KCl 0.1 M,2.9 M
same,unfolding free energy,KCl 0.1 M,8.8 kcal/mol
same,denaturant m value,Li2SO4 0.20 M,2.82 kcal/mol/M
same,denaturant midpoint (higher = more stable),Li2SO4 0.20 M,3.16 M
same,unfolding free energy,Li2SO4 0.20 M,9.6 kcal/mol
same,denaturant m value,Li2SO4 0.40 M,2.82 kcal/mol/M
same,denaturant midpoint (higher = more stable),Li2SO4 0.40 M,3.35 M
same,unfolding free energy,Li2SO4 0.40 M,10.2 kcal/mol
same,denaturant m value,LiBr 0.76 M,3.14 kcal/mol/M
same,denaturant midpoint (higher = more stable),LiBr 0.76 M,2.15 M
same,unfolding free energy,LiBr 0.76 M,6.55 kcal/mol
same,denaturant m value,LiBr 1.52 M,3.41 kcal/mol/M
same,denaturant midpoint (higher = more stable),LiBr 1.52 M,1.48 M
same,unfolding free energy,LiBr 1.52 M,4.51 kcal/mol
same,denaturant m value,LiCi 0.50 M,2.71 kcal/mol/M
same,denaturant midpoint (higher = more stable),LiCi 0.50 M,2.75 M
same,unfolding free energy,LiCi 0.50 M,8.36 kcal/mol
same,denaturant m value,LiCi 0.99 M,3.13 kcal/mol/M
same,denaturant midpoint (higher = more stable),LiCi 0.99 M,2.57 M
same,unfolding free energy,LiCi 0.99 M,7.8 kcal/mol
same,denaturant m value,LiSCN 0.09 M,3.05 kcal/mol/M
same,denaturant midpoint (higher = more stable),LiSCN 0.09 M,2.72 M
same,unfolding free energy,LiSCN 0.09 M,8.27 kcal/mol
same,denaturant m value,LiSCN 0.34 M,2.87 kcal/mol/M
same,denaturant midpoint (higher = more stable),LiSCN 0.34 M,2.06 M
same,unfolding free energy,LiSCN 0.34 M,6.25 kcal/mol
same,denaturant m value,LiSCN 0.69 M,3.08 kcal/mol/M
same,denaturant midpoint (higher = more stable),LiSCN 0.69 M,1.34 M
same,unfolding free energy,LiSCN 0.69 M,4.08 kcal/mol
same,denaturant m value,NH4Cl 0.45 M,3.02 kcal/mol/M
same,denaturant midpoint (higher = more stable),NH4Cl 0.45 M,2.83 M
same,unfolding free energy,NH4Cl 0.45 M,8.5 kcal/mol
same,denaturant m value,Na2SO4 0.15 M,2.83 kcal/mol/M
same,denaturant midpoint (higher = more stable),Na2SO4 0.15 M,3.12 M
same,unfolding free energy,Na2SO4 0.15 M,9.49 kcal/mol
same,denaturant m value,NaBr 0.50 M,3.42 kcal/mol/M
same,denaturant midpoint (higher = more stable),NaBr 0.50 M,2.53 M
same,unfolding free energy,NaBr 0.50 M,7.7 kcal/mol
same,denaturant m value,NaBr 0.99 M,2.97 kcal/mol/M
same,denaturant midpoint (higher = more stable),NaBr 0.99 M,2.27 M
same,unfolding free energy,NaBr 0.99 M,6.91 kcal/mol
same,denaturant m value,NaSCN 0.25 M,3.11 kcal/mol/M
same,denaturant midpoint (higher = more stable),NaSCN 0.25 M,2.39 M
same,unfolding free energy,NaSCN 0.25 M,7.27 kcal/mol
same,denaturant m value,NaSCN 0.49 M,2.93 kcal/mol/M
same,denaturant midpoint (higher = more stable),NaSCN 0.49 M,1.91 M
same,unfolding free energy,NaSCN 0.49 M,5.8 kcal/mol
same,denaturant m value,RbCl 0.50 M,2.89 kcal/mol/M
same,denaturant midpoint (higher = more stable),RbCl 0.50 M,2.89 M
same,unfolding free energy,RbCl 0.50 M,8.4 kcal/mol
